Measured values as given in the supplement of paper PMC10567573.

B1: SOAT1 (parent)
chain: VYYIFERLCAPLFRNIKQEPFSAR

Variants of: B1
Assay: protein stability index of a GFP-peptide fusion (GPS, HEK-293T) (PSI 1-6); higher = more stable
Settings: c terminus: a fixed tail appended
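Also: lentivirally expressed fusions sorted by FACS into six bins by GFP to DsRed ratio, PSI derived from sequencing read proportions per bin multiplied by bin number.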

Variant	protein stability index
VYYIFERLCAPLFRNIKQTPFSAR [E19T]	2.27
VYYIFERLCAPLFRNIKQLPFSAR [E19L]	1.52
VYYIFERLCAPLFRNIKQDPFSAR [E19D]	2.08
VYYIFERLCAPLFRNIKQKPFSAR [E19K]	2.4
VYYIFERLCAPLFRNIKQQPFSAR [E19Q]	3.17
VYYIFERLCAPLFRNIKQIPFSAR [E19I]	2.6
VYYIFERLCAPLFRNIKQEPFSAA [R24A]	2.27
VYYIFERLCAPLFRNIKQEPFSAY [R24Y]	1.88
VYYIFERLCAPLFRNIKQEPFSAL [R24L]	2.79
VYYIFERLCAPLFRNIKQEPFSAV [R24V]	2.57
VYYIFERLCAPLFRNIKQEPFSAD [R24D]	3.13
VYYPFERLCAPLFRNIKQEPFSAR [I4P]	1.64
VYYMFERLCAPLFRNIKQEPFSAR [I4M]	3.78
VYYSFERLCAPLFRNIKQEPFSAR [I4S]	2.12
VYYRFERLCAPLFRNIKQEPFSAR [I4R]	3.07
VYYLFERLCAPLFRNIKQEPFSAR [I4L]	2.64
VYYYFERLCAPLFRNIKQEPFSAR [I4Y]	2.11
VYYWFERLCAPLFRNIKQEPFSAR [I4W]	1.94
VYYIFERLCAPLFRNIKQEWFSAR [P20W]	2.79
VYYIFERLCAPLFRNIKQEYFSAR [P20Y]	4.1
VYYIFERLCAPLFRNIKQESFSAR [P20S]	1.36
VYYIFERLCAPLFRNIKQEKFSAR [P20K]	1.88
VYYIFERLCAPLFRNIKQEAFSAR [P20A]	2.34
VYYIFERLFAPLFRNIKQEPFSAR [C9F]	1.95

Variant	protein stability index
VYYIFERLPAPLFRNIKQEPFSAR [C9P]	3.02
VYYIFERLWAPLFRNIKQEPFSAR [C9W]	4.32
VYYIFERLGAPLFRNIKQEPFSAR [C9G]	3.15
VYYIFERLCAPLFRRIKQEPFSAR [N15R]	2
VYYIFERLCAPLFRMIKQEPFSAR [N15M]	2.01
VYYIFERLCAPLFREIKQEPFSAR [N15E]	3.52
VYYIFERLCAPLFRKIKQEPFSAR [N15K]	2.84
VYYIFERLCAPLFRHIKQEPFSAR [N15H]	2.86
VYYIFERKCAPLFRNIKQEPFSAR [L8K]	3.25
VYYIFERTCAPLFRNIKQEPFSAR [L8T]	2
VYYIFERICAPLFRNIKQEPFSAR [L8I]	1.62
VYYIFERECAPLFRNIKQEPFSAR [L8E]	3.97
VYYIFERDCAPLFRNIKQEPFSAR [L8D]	3.16
VYYIFDRLCAPLFRNIKQEPFSAR [E6D]	3
VYYIFARLCAPLFRNIKQEPFSAR [E6A]	2.38
VYYIFWRLCAPLFRNIKQEPFSAR [E6W]	2.59
VYYIFLRLCAPLFRNIKQEPFSAR [E6L]	4.01
VYYIFYRLCAPLFRNIKQEPFSAR [E6Y]	2.53
VYYIFMRLCAPLFRNIKQEPFSAR [E6M]	2.41
VYYIFERLCAPLFRNIKQEPFHAR [S22H]	1.92
VYYIFERLCAPLFRNIKQEPFDAR [S22D]	2.88
VYYIFERLCAPLFRNIKQEPFYAR [S22Y]	3.56
VYYIFERLCAPLFRNIKQEPFTAR [S22T]	2.36
VYYIFERLCAPLFRNIKDEPFSAR [Q18D]	2.9

Variant	protein stability index
VYYIFERLCAPLFRNIKHEPFSAR [Q18H]	3.42
VYYIFERLCAPLFRNIKWEPFSAR [Q18W]	2.6
VYYIFERLCAPLFRNIKFEPFSAR [Q18F]	1.28
VYYIFERLCAPLFRNIKKEPFSAR [Q18K]	1.37
VTYIFERLCAPLFRNIKQEPFSAR [Y2T]	2.97
VFYIFERLCAPLFRNIKQEPFSAR [Y2F]	2.86
VSYIFERLCAPLFRNIKQEPFSAR [Y2S]	1.87
VEYIFERLCAPLFRNIKQEPFSAR [Y2E]	3.36
VIYIFERLCAPLFRNIKQEPFSAR [Y2I]	3.75
VYYIFERLCAPLNRNIKQEPFSAR [F13N]	3.57
VYYIFERLCAPLHRNIKQEPFSAR [F13H]	2
VYYIFERLCAPLARNIKQEPFSAR [F13A]	1.96
VYYIFERLCAPLTRNIKQEPFSAR [F13T]	4.31
VYYIFERLCAPFFRNIKQEPFSAR [L12F]	2.5
VYYIFERLCAPYFRNIKQEPFSAR [L12Y]	2.16
VYYIFERLCAPLFRNIKQEPFSNR [A23N]	2.53
VYYIFERLCAPLFRNIKQEPFSKR [A23K]	2.41
VYYIFERLCAPLFRNIKQEPFSLR [A23L]	2.55
VYYIFERLCAPLFRNIKQEPFSRR [A23R]	1.9
VYYIFERLCAPLFRNIKQEPFSYR [A23Y]	3.86
VYYIYERLCAPLFRNIKQEPFSAR [F5Y]	1.81
VYYIHERLCAPLFRNIKQEPFSAR [F5H]	1.56
VYYIIERLCAPLFRNIKQEPFSAR [F5I]	1.64
VYYIRERLCAPLFRNIKQEPFSAR [F5R]	2.8

Variant	protein stability index
VYYIVERLCAPLFRNIKQEPFSAR [F5V]	3.45
VYYISERLCAPLFRNIKQEPFSAR [F5S]	1.97
VYYICERLCAPLFRNIKQEPFSAR [F5C]	2.46
LYYIFERLCAPLFRNIKQEPFSAR [V1L]	2.5
EYYIFERLCAPLFRNIKQEPFSAR [V1E]	1.3
HYYIFERLCAPLFRNIKQEPFSAR [V1H]	1.41
MYYIFERLCAPLFRNIKQEPFSAR [V1M]	2.28
NYYIFERLCAPLFRNIKQEPFSAR [V1N]	2.22
CYYIFERLCAPLFRNIKQEPFSAR [V1C]	1.17
AYYIFERLCAPLFRNIKQEPFSAR [V1A]	1.74
RYYIFERLCAPLFRNIKQEPFSAR [V1R]	2.24
VYYIFETLCAPLFRNIKQEPFSAR [R7T]	1.74
VYYIFEILCAPLFRNIKQEPFSAR [R7I]	5.23
VYYIFESLCAPLFRNIKQEPFSAR [R7S]	4.56
VYCIFERLCAPLFRNIKQEPFSAR [Y3C]	3.23
VYGIFERLCAPLFRNIKQEPFSAR [Y3G]	1.22
VYVIFERLCAPLFRNIKQEPFSAR [Y3V]	3.21
VYFIFERLCAPLFRNIKQEPFSAR [Y3F]	2.75
VYHIFERLCAPLFRNIKQEPFSAR [Y3H]	1.71
VYPIFERLCAPLFRNIKQEPFSAR [Y3P]	2.12
VYQIFERLCAPLFRNIKQEPFSAR [Y3Q]	3.86
VYDIFERLCAPLFRNIKQEPFSAR [Y3D]	1.45
